Columns and labels:
[1] = biological target: T1, IL-10 receptor signaling complex on mouse splenocytes (CD8 T cells, NK cells, B cells) (mouse, UniProt Q61727 17-575; Q61190 20-349); test: cell-based or functional assay
T1 sequence (looked up) 1: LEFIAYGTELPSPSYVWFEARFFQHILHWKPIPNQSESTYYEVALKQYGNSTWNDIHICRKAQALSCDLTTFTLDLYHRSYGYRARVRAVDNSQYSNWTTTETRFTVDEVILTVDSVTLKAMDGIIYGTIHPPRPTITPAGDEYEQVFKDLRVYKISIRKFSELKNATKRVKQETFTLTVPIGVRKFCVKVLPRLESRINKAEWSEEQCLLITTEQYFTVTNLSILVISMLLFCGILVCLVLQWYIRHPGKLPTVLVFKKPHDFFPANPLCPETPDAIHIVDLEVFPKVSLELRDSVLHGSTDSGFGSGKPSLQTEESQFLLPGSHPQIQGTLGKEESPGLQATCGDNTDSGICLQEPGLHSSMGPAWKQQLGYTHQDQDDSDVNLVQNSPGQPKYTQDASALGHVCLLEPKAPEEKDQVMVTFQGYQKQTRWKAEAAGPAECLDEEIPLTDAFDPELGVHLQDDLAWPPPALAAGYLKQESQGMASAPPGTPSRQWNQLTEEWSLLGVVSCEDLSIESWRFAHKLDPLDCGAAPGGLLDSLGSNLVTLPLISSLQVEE
T1 sequence (looked up) 2: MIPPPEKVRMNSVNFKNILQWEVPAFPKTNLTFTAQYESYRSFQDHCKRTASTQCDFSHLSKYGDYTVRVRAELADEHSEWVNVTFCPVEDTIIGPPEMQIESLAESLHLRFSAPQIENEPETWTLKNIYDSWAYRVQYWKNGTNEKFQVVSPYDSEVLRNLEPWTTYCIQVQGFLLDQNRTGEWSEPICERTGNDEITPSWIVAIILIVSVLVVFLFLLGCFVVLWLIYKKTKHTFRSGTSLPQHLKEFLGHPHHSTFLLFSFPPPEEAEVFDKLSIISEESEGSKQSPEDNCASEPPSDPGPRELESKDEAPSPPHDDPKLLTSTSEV

[2] = biological target: T1, IL-10 receptor signaling complex on …; test: cell-based or functional assay; remark: listed apart in the source

EC50, STAT3 phosphorylation, B cells, B57BL/6 mouse splenocytes [1]: 0.83 ng/mL
EC50, STAT3 phosphorylation, CD8 T cells, B57BL/6 mouse splenocytes [1]: 3.65 ng/mL
EC50, STAT3 phosphorylation, NK cells, B57BL/6 mouse splenocytes [1]: 1.06 ng/mL
EC50, STAT3 phosphorylation, B cells, Balb/c mouse splenocytes [2]: 1.3 ng/mL
EC50, STAT3 phosphorylation, CD8 T cells, Balb/c mouse splenocytes [2]: 4.07 ng/mL
EC50, STAT3 phosphorylation, NK cells, Balb/c mouse splenocytes [2]: 1.08 ng/mL
B1: Wild-type His-IL-10 (ligand)
chain: MHHHHHHGSSENLYFQSPGQGTQSENSCTHFPGNLPNMLRDLRDAFSRVKTFFQMKDQLDNLLLKESLLEDFKGYLGCQALSEMIQFYLEEVMPQAENQDPDIKAHVNSLGENLKTLRLRLRRCHRFLPCENKSKAVEQVKNAFNKLQEKGIYKAMSEFDIFINYIEAYMTMKIRN

From patent publication US20220273767A1 (SYNTHORX, published 2022)
